Columns and labels:
Assay type in all cases: biochemical
[1] = Laccase-cellulase catalyzed hydrolysis of pretreated biomass, glucose release; conditions: with cellulase 1 or 2, pH 5.1, 50° C., 30 hour, p<0.05
Protocol: (§1) FIG. 14. A graphical comparison of glucose released over time during hydrolysis of pre-treated barley straw at pH 5.1 and 50° C. by each of commercial enzyme preparations Cellulase 1 (CC2) [A]; or Cellulase 2 [B], either alone, or in combination with a laccase enzyme; the tested laccases being respectively LacGL1 and GLlac1 (LacJooSS; Q9HG17) derived from G. lucidum; and laccases derived from Agaricus bisporus (Sigma 40452), Pleurotus ostreatus (Sigma 75117) and, Trametes versicolor (Sigma 51639).
(§2) The commercial fungal laccases were purchased as lyophilized protein samples from Sigma Aldrich. A solution of each of the above 5 laccases was prepared in a citric buffer containing 20% of glycerol (pH 5.1, 100 mM).
(§3) Two different commercially available cellulase enzyme preparations used in the comparative study were “Cellulase 1” and “Cellulase 2”, which were tested in combination with each of the laccases listed above.
(§4) The three different types of pretreated biomass used in the comparative study were sugarcane bagasse, barley straw and wheat straw. The source and pre-treatment of the sugarcane bagasse by steam explosion was as set out in Example 9. […] The composition of the dry and the pretreated biomass were determined according to the US National Renewable Energy Laboratory (NREL) procedures (Sluiter et al, 2010).
(§5) The laccase-cellulase catalyzed hydrolysis of the pretreated biomass samples to release glucose was performed as follows: Hydrolysis of 5% (w/v) samples of pretreated sugarcane bagasse, barley straw, and wheat straw biomass were assayed using an Enzyme/Substrate (E/S) ratio of 0.064% w/w for laccases and of 0.4% w/w for each commercial cellulase preparation in each hydrolysis reaction. The E/S dosage was based on the total protein concentration used, as determined using Pierce BCA (BiCinchoninic Acid) protein assay kit microplate procedure according to manufacturer's instruction (Thermo Fisher Scientific, Rockford, US). […]
(§6) Laccase and cellulase-mediated hydrolysis of the 3 biomass forms, measured as glucose release, are shown graphically in FIGS. 13, 14 and 15. […]

[2] = as above; conditions: with cellulase 1 or 2, pH 5.1, 50° C., 30 hour
Protocol: as §1, with “15.” for “14.”, “wheaty” for “barley”
as §2, §3, §4, §5, §6

[3] = Laccase activity assay with ABTS; influence of pH and temperature
From the text: FIG. 8. A surface response plot of the relative activity (U/mL) of the LacGL1 laccase expressed in Pichia pastoris as a function of pH and temperature. The effect of the pH and temperature on the LacGL1 laccase activity, expressed from P. pastoris, was modeled via randomized, full factorial, statistically designed experiment—MODDE program version 7.0.0.1 (Umetrics, Umeå, Sweden). The statistical design consisted of 12 experiments, including a triplicate repetition at the center point (pH 5 and 40° C.), using ABTS as a substrate. The influence of the temperature and pH was monitored between 25-55° C. and pH 4-6 (for 0.1 M citrate-phosphate buffer), respectively. The mixture with the ABTS and buffer at the defined pH value was incubated for 5 min. in a thermocycler set to a desired temperature and afterwards added to a previously pre-diluted enzyme in a microtiter plate which was incubated for 1 min. in a microtiter plate reader set to a desired temperature. After mixing the substrate and buffer with the enzyme, the initial rate of the product formation was measured as described above. The volumes and concentrations of enzyme, substrate, and buffer were identical as for the laccase activity assay.
The laccase activity was measured based on a modified method of Ters et al. (2009). The laccase activity was defined as the amount of the enzyme required to oxidise 1 μmol of ABTS per minute at 25° C., and pH 4.7. The assay mixture contained: 0.1 M citrate-phosphate buffer (255 μL, pH 4.7), ABTS (5 μL, 4 mM (ABTS stock solution)), and pre-diluted laccase (5 μL) that ensured the linear range of Michaelis-Menten kinetics. The oxidation of ABTS was monitored at 420 nm (ε420=36800 M^−1cm^−1) for 2 min. in an Infinite 200 microtiter plate reader (Tecan, Salzburg, Austria). Laccase activity assays on the substrates: hydroquinone (248 nm), 2.6-dimethoxyphenol (470 nm), and guaiacol (436 nm) was done similarly with the substrate concentration as described in Table 2 using the following extinction coefficient values: 17.542 M^−1cm^−1, 35.645 M^−1cm^−1, and 6.400 M^−1cm^−1, respectively (Minussi et al. 2007). The data collection was monitored by the program Tecan i-control version 1.5.14.0 (Tecan, Salzburg, Austria). The calculated laccase activity was corrected by the absorbance of a control sample which contained: 0.1 M citrate-phosphate buffer (255 μL, pH 4.7), ABTS (5 μL, 4 mM), and 5 μL of distilled water instead of the enzyme. […]
The effect of the pH and temperature on the LacGL1 laccase activity was determined with a statistically designed, randomized, full factorial experiment as described in FIG. 8. The relative laccase activity was calculated based on the LacGL1 activity at pH 4.7 and 25° C. […]

glucose release compared to GLlac1 [1]: significantly greater
glucose release compared to the other tested laccases [1]: significantly enhanced
glucose release compared to GLlac1 [2]: the same
glucose release compared to the other tested laccases ([2]; p<0.05): significantly enhanced
B1: LacGL1: Fungal laccase from Ganoderma lucidum CBS229.93 (SEQ ID NO: 5/9), recombinantly expressed in Pichia pastoris X-33 (protein, listed as Ganoderma lucidum)
chain: GIGPKTDLTISNADVAPDGYTRAAVVVNGVFPAPLITGNKGDRFQLNVIDQMTNHTMLKSTSIHWHGFFQKGTNWADGPAFINQCPISSGHSFLYDFQVPDQAGTFWYHSHLSTQYCDGLRGPFVVYDPKDPLKKLYDIDDDSTVITLTDWYHVAARLGPRFPLGSDSTLINGLGRSTTNVTADLAVINVTQGKRYRFRLVSLSCDPNYTFSIDDHNMTVIEADGIETQPVTVNAIQIFSAQRYSFVLTANQTIDNYWIRANPNFGNVGFTDGINSAILRYAGADPVEPTTSQQTTQNLLNEVDLHPFVPKRTPGQPTQGGVDTAINMVFNFNGSNFFINNASFVPPTVPVLLQILSGAQAAQDLLPSGSVYTLPVNKSIELTFPATANAPGAPHPFHLHGHAFAVVRSAGSTVYNYDNPVWRDVVSTGTPAAGDNVTIRFQTDNPGPWFLHCHIDFHLEAGFAVVFAEDPTDTSLANPVPKAWSDLCPTYDALSVDDQ
modifications: mat_peptide (1)..(499) Mature LacGL1 laccase (minus signal peptide)
laccase activity ([3]; expressed by recombinant P. pastoris, after sterile filtration, ABTS, 25° C., pH 4.7): 17.5 U/mL
temperature at which activity is highest ([3]; pH 4.7): 40-50 °C
temperature optimum (predicted, highest relative activity) ([3]; pH 4.7, ABTS, factorial model 25-55° C.): 55 °C
pH optimum (highest relative activity) ([3]; substrate ABTS): 4.7

Source: patent US9725702B2, “Laccase from ganoderma lucidum capable of enhancing enzymatic degradation of lignocellulolytic biomass” (DANMARKS TEKNISKE UNIVERSITET, priority 2012, dated 2017)
